Reference: PMC5770445

B1: LpxA expressed from pUT18C (enzyme)
chain: MIDKTAFIHPTAIVEEGAVIGANAHIGPFCIVGPDVKIGEGTVLKSHVVVNGHTTIGRDNEIYQFASIGEVNQDLKYAGEPTRVEIGDRNRIRESVTIHRGTAQGGGLTKVGSDNLLMINAHVAHDCTVGNRCILANNATLAGHVSVDDFAIIGGMTAVHQFCIIGAHVMVGGCSGVAQDVPPYVIAQGNHATPFGVNIEGLKRRGFSKEALHAIRNAYKLLYRSGKTLDEVKPEIAEIAAKHPEVQPFYDFFARSTRGLIR

What was measured:
His-LpxA (C. sakazakii) = His-LpxA (C. sakazakii) (UniProt A7MI18)
[1] = biological target: Labp V94A expressed from pKT25 (C. sakazakii); assay: two-hybrid; bacterial adenylate cyclase-based two-hybrid (BACTH) in E. coli BTH101, pKT25 and pUT18C fusions, β-galactosidase activity in Miller units

Row | Molecule | LpxA enzymatic activity: fluorescence of ThioGlo-ACP conjugates (RFU) with UDP-GlcNAc and R-3-hydroxymyristoyl-ACP; 10 nM LpxA with 300 nM His-CSK29544 02616 against LpxA alone (His-LpxA (C. sakazakii)) [fold] | fold reduction in ß-galactosidase activity compared to intact Labp [1] [fold]
1 | His-CSK29544_02616 (His×6-tagged CSK29544_02616 product, Labp) (natural protein) | 2 | 
2 | B1 |  | 4
